Experimental data taken from patent publication US20160115467A1 (Biogen, published 2016).
Where a chain is given by its changes, count along the chain named.

B1: 34D10 (antibody, V domains shown)
VH: EVKLVESGGGLVKPGGSLKLSCAASGFTFSAYAMSWVRQTPEKRLEWVASISSGGTTYYPDSVKRRFTISRDNARNILYLQMSSLRSEDTAMYYCTRGGDYGYALDYWGQGTSVTVSS
VL: ENVLTQSPAIMSASLGEKVTMSCRASSSVNYMYWYQQKSDASPKLWIYYTSNLAPGVPARFSGSGSGNSYSLTISSMEGEDAATYYCQQFSSSPWTFGGGTKLEIKR
notes: Mouse monoclonal from BALB/c hybridoma, tested as hybridoma supernatant (detected with anti-mouse IgG); also called monoclonal antibody 34D10; 34D10 antibody
B2: 4B11 (antibody, V domains shown)
VH: B1 VH with A31S, E46A, T56N, T57I, Y59F, R65G, N73D, S83R, T96A, L105M
VL: B1 VL with S22N, Y48F, T101S
notes: Mouse monoclonal from BALB/c hybridoma, tested as hybridoma supernatant; also called 4B11 antibody
B3: 36A8 (antibody, V domains shown)
VH: B1 VH with K3R, A31T, S52N, S53G, T56S, R65G, S83R, T96A
VL: B1 VL with S22N, Y48F, T101S
notes: Mouse monoclonal from BALB/c hybridoma, tested as hybridoma supernatant; also called 36A8 antibody
B4: 18F7 (antibody, V domains shown)
VH: QVQLKESGPGLVAPSQSLSITCTVSGFSLTSYGVSWVRQPPGKGLEWLGIIWGDGSTNYHSVLKSRLSISKDNSKSQVFLKLNSLQTDDTATYYCAKQDFDVWGAGTTVTVSS
VL: DVQMIQSPFSLSASLGDIVTMTCQASQGTSINLNWFQQKPGKAPKLLIYGVSNLEDGVPSRFSGSRYGTDFTLTIGSLEDEDMATYFCLQHSYLPYTFGGGTKLEIKR
notes: Mouse monoclonal from BALB/c hybridoma, tested as hybridoma supernatant; also called 18F7 antibody
B5: 28F4 (antibody, V domains shown)
VH: EVQLVESGGDLVKPGGSLKLSCAASGFTFSNYGMSWVRQTPDKRLEWVATISSGGTYTYYPDSVKGQFTIFRDNAKNTLYLQMSSLKSEDTAMYYCTRRDYDYEGFAYWGQGTLVTVS
VL: DIVLTQSPATLSVTPGDSVSLSCRASQSISNNLHWYQQKSHESPRLLIKYASHSISGIPSRFSGSGSGTDFTLSINSVETEDFGMYFCQQSNNWPFTFGSGTKLEIKR
notes: Mouse monoclonal from BALB/c hybridoma, tested as hybridoma supernatant; also called 28F4 antibody
B6: rFVIIa (enzyme)
chain 1: ANAFLEELRPGSLERECKEEQCSFEEAREIFKDAERTKLFWISYSDGDQCASSPCQNGGSCKDQLQSYICFCLPAFEGRNCETHKDDQLICVNENGGCEQYCSDHTGTKRSCRCHEGYSLLADGVSCTPTVEYPCGKIPILEKRNASKPQGR
chain 2: IVGGKVCPKGECPWQVLLLVNGAQLCGGTLINTIWVVSAAHCFDKIKNWRNLIAVLGEHDLSEHDGDEQSRRVAQVIIPSTYVPGTTNHDIALLRLHQPVVLTDHVVPLCLPERTFSERTLAFVRFSLVSGWGQLLDRGATALELMVLNVPRLMTQDCLQQSRKVGDSPNITEYMFCAGYSDGSKDSCKGDSGGPHATHYRGTWYLTGIVSWGQGCATVGHFGVYTRVSQYIEWLQKLMRSEPRPGVLLRAPFP
notes: Control without targeting moiety
B7: 28C2 (antibody, V domains shown)
VH: QVTLKASGPGIVQPSQTLSLTCSFSGFSLNTSGMGVGWIRQPSGKGLEWLAHIWWDDDKRYNPALKSRLTISKDTSNNQIFLKIASVDTADTATYYCARSHYYGTFYFDYWGQGTTLTVSS
VL: DVQITQSPSYLAASPGETITINCRASKSISKYLAWYQEKPGTTYKLLIYSGSTLQSGIPSRFSGSGSGTDFTLTISSLEPEDFAMYYCQQHIEYPWTFGGGTKLEIKR
notes: Mouse monoclonal from BALB/c hybridoma, tested as hybridoma supernatant; also called 28C2 antibody
B8: 9D6 (antibody, V domains shown)
VH: QVTLKESGPGILQPSQTLSLTCSFSGFSLSTSGMGVGWIRQSSGKGLEWLAHIWWDDDKRYNPTLKSRLTISKDTSNNQVFLKIANMDTADIATYYCARSHYNGTFYFDFWGQGITLTVSS
VL: B7 VL with T42K, Y44N, S77T
notes: Mouse monoclonal from BALB/c hybridoma, tested as hybridoma supernatant; also called 9D6 antibody
B9: 12B2 (antibody, V domains shown)
VH: QVQLQQSGAELTKPGASVKISCKATGYTFSSYWIEWVKQRPGHGLEWIGEILPGSGITKYNDKFKGKATFTADTSSNTAYMQLSSLTSEDSAVYSCARLISYYYAMDYWGQGTSVTVSS
VL: DIQMTQTTSSLSASLGDRVTISCRASQDISNYLNWYQQKPDGTVKLLIYYTSRLHSGVPSRFSGSGSGTDYSLTISNLEQEDIATYFCQQGNTLPPTFGGGTKLEIKR
notes: Mouse monoclonal from BALB/c hybridoma, tested as hybridoma supernatant; also called 12B2 antibody
B10: 1H6 (antibody, V domains shown)
VH: QVQLQQSGAELVRPGTSVKVSCKASGYAFTNYLIEWVKQRPGQGLEWIGVINPGSGGTNYNEKFKGKATLTADKSSSTAYMHLSSLTSDDSAVYFCARGRYEWYFDVWGAGTTVTVSS
VL: B9 VL with S30T, Q38R, N92Y, P96Y
notes: Mouse monoclonal from BALB/c hybridoma, tested as hybridoma supernatant; also called 1H6 antibody
B11: 38A8 (antibody, V domains shown)
VH: B10 VH with V37I, H82Q
VL: B9 VL with Q37L, T74S, N92Y, P96Y
notes: Mouse monoclonal from BALB/c hybridoma, tested as hybridoma supernatant; also called 38A8 antibody

Assays:
[1] = biological target: T1, human GPIIb/IIIa on human platelets (human, UniProt P08514 32-1039; P05106 27-788); test: flow cytometry, hybridoma supernatant on human platelets
T1 construct: Native receptor on gel-purified human platelets or platelets in diluted human whole blood; also called platelets in human whole blood
Description: Hybridomas were then screened for binding to human and cynomolgus monkey platelets using flow cytometry, and for binding to GPIIb/IIIa using Enzyme-linked immunosorbent assays (ELISA). To determine binding to human and money platelets, gel-purified human or monkey (cynomolgus) platelets in Tyrode's buffer were incubated with hybridoma supernatant. Following a 30 minute incubation, cells were fixed in 1% formaldehyde. Following fixation, cells were washed in Tyrode's buffer and a detection antibody was added (Jackson Immunoresearch goat anti-mouse IgG-PE conjugated). Antibody binding was detected by flow cytometry.

[2] = biological target: T2, mouse platelets (mouse GPIIb/IIIa) (mouse, UniProt Q9QUM0 32-1033; O54890 26-787); test: binding to platelets in mouse blood (method not detailed; flow cytometry implied)
T2 construct: whole, on cells; the receptor is inferred from the antibody's target
T2 sequence (Q9QUM0 32-1033, chain 1 of 2): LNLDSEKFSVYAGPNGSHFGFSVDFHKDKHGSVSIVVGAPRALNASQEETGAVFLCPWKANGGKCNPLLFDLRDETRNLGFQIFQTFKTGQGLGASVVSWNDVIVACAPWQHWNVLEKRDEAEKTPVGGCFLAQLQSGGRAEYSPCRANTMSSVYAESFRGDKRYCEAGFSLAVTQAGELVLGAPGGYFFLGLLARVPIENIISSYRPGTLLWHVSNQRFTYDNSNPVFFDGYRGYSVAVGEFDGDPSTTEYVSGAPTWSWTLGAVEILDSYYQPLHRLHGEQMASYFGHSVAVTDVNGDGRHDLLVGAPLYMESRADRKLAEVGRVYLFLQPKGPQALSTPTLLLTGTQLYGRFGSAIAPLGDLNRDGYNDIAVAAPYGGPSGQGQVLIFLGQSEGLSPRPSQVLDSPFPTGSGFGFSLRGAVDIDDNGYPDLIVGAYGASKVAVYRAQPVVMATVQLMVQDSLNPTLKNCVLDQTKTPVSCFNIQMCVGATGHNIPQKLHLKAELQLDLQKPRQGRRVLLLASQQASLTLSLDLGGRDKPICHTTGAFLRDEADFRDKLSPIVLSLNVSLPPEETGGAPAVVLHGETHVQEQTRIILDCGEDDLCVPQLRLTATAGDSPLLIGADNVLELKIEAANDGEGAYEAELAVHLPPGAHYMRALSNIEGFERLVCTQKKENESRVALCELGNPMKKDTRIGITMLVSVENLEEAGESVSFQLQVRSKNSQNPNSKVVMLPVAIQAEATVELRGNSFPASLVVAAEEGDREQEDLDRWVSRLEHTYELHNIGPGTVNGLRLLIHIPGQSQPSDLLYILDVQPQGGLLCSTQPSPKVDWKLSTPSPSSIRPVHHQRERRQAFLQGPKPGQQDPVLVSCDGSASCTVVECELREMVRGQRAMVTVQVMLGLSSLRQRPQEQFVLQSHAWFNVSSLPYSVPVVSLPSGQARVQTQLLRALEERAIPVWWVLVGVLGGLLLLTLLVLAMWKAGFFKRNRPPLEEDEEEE
T2 sequence (O54890 26-787, chain 2 of 2): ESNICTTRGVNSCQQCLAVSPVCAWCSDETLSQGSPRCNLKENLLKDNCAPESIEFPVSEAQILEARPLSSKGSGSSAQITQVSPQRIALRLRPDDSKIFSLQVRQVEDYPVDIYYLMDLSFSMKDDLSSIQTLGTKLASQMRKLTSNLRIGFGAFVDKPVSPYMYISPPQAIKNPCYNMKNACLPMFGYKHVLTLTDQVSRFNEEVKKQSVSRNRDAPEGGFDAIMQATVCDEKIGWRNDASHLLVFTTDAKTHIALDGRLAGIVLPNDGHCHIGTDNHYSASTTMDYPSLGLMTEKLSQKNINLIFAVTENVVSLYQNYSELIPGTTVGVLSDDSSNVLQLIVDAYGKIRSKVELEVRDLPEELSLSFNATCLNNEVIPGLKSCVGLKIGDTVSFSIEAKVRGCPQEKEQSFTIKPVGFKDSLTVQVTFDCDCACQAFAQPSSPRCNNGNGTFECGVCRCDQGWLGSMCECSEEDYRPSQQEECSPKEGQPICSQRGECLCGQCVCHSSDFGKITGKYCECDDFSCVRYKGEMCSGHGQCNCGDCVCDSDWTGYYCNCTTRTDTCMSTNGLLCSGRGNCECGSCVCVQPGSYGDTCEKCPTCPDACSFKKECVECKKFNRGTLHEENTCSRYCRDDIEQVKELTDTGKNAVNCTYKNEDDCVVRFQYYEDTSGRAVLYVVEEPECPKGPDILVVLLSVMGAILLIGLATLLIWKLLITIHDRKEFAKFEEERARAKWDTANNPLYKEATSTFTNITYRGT

[3] = biological target: T1, human GPIIb/IIIa on human platelets; test: flow cytometry, protein spiked in diluted (1:50) human whole blood, FITC-anti-FVII on CD42b-stained platelets

Row | Binder | binding result [1] | binding result [2] | binding result [3]
1 | B1 | binds | no binding | 
2 | B2 | binds |  | 
3 | B3 | binds |  | 
4 | B4 | binds |  | 
5 | B5 | binds |  | 
6 | B6 |  |  | no binding
7 | B7 | binds |  | 
8 | B8 | binds |  | 
9 | B9 | binds |  | 
10 | B10 | binds |  | 
11 | B11 | binds |  | 
